According to FireProtDB (doi:10.1111/j.1432-1033.1995.tb20520.x):
Several values for one entry are separate records, joined by “and”; a condition that tells them apart may be missing. Identical values can stand only once.

Conditions: Paenibacillus macerans, pH 6, Sodium cacodylate 2 mM, reversible: yes, whole UniProt chain shown; for unfolding free energy: 25 °C, GdnHCl; for heat capacity change of unfolding / unfolding enthalpy (van 't Hoff) / Tm / unfolding enthalpy (calorimetric): Thermal

B1: Beta-glucanase wild type, P23904 (protein)
chain: MKKKSCFTLVTTFAFSLIFSVSALAGSVFWEPLSYFNRSTWEKADGYSNGGVFNCTWRANNVNFTNDGKLKLGLTSSAYNKFDCAEYRSTNIYGYGLYEVSMKPAKNTGIVSSFFTYTGPAHGTQWDEIDIEFLGKDTTKVQFNYYTNGVGGHEKVISLGFDASKGFHTYAFDWQPGYIKWYVDGVLKHTATANIPSTPGKIMMNLWNGTGVDDWLGSYNGANPLYAEYDWVKYTSN
With B1 the unfolding free energy (CD) was 10.3 kcal/mol and 9.01 kcal/mol and 8.6 kcal/mol, the unfolding free energy (DSC, CaCl2 1 mM) was 10.4 kcal/mol and 10.5 kcal/mol and the unfolding free energy (DSC) was 10.8 kcal/mol and 9.89 kcal/mol and 8.41 kcal/mol. For the same protein, the “heat capacity change of unfolding” value (CD, CaCl2 1 mM) was 2.2 kcal/mol/K and 1.79 kcal/mol/K, the “unfolding enthalpy (van 't Hoff)” value (CD, CaCl2 1 mM) was 162 kcal/mol and 169 kcal/mol and 183 kcal/mol and the Tm (CD) was 51.2 °C and 47.7 °C and 49.7 °C. The “heat capacity change of unfolding” value (CD) was 2.01 kcal/mol/K and 1.6 kcal/mol/K and 1.7 kcal/mol/K, the “unfolding enthalpy (van 't Hoff)” value (CD) was 154 kcal/mol and 145 kcal/mol and 135 kcal/mol and the “heat capacity change of unfolding” value (DSC, CaCl2 1 mM) was 2.2 kcal/mol/K and 1.79 kcal/mol/K and 2.44 kcal/mol/K. For the same protein, the “unfolding enthalpy (calorimetric)” value (DSC, CaCl2 1 mM) was 78.2 kcal/mol and 156 kcal/mol and 87 kcal/mol, the Tm (DSC) was 51.2 °C and 49.3 °C and 46.6 °C and the “heat capacity change of unfolding” value (DSC) was 2.01 kcal/mol/K and 1.6 kcal/mol/K and 1.7 kcal/mol/K. The “unfolding enthalpy (calorimetric)” value (DSC) was 161 kcal/mol and 146 kcal/mol and 143 kcal/mol.
